Starred links: 1 amine or outer side, 2 acyl side, 3 side chain; linkers in the order of their positions; H or OH if unused. Positions of bridges follow the written chain, without caps; N, C: chain ends. Non-standard residues stand in square brackets, D forms with d. Primed or numbered codes have the meaning given here. PyrS2″ = (S)-3-amino-1-((pent-4-en-1-yloxy)carbonyl)pyrrolidine-3-carboxylic acid (stapling residue), C=CCCCOC(=O)N1CC[C@@](N[*:1])(C(=O)[*:2])C1; B5(4) = 2,2-bis(4-pentenyl)glycine = 2-amino-2-(pent-4-en-1-yl)hept-6-enoic acid (stitching residue), C=CCCCC(CCCC=C)(N[*:1])C(=O)[*:2]; B5(5) = 2,2-bis(4-pentenyl)glycine, 2-amino-2-(pent-4-en-1-yl)hept-6-enoic acid (stitching residue), C=CCCCC(CCCC=C)(N[*:1])C(=O)[*:2]; PyrS2 = (S)-3-amino-1-((pent-4-en-1-yloxy)carbonyl)pyrrolidine-3-carboxylic acid, C=CCCCOC(=O)N1CC[C@@](N[*:1])(C(=O)[*:2])C1; B5(27) = 2-amino-2-(pent-4-en-1-yl)hept-6-enoic acid (two alkene side-chain arms), C=CCCCC(CCCC=C)(N[*:1])C(=O)[*:2]; F2PipAbu = (S)-2-amino-4-(4,4-difluoropiperidin-1-yl)butanoic acid, O=C([C@H](CCN1CCC(F)(F)CC1)N[*:1])[*:2]; MorphAsn = (S)-2-amino-4-morpholino-4-oxobutanoic acid, O=C(C[C@H](N[*:1])C(=O)[*:2])N1CCOCC1; Phe(3-COOH) = N[C@@H](Cc1cccc(C(=O)O)c1)C(=O)O; Bta = N[C@@H](Cc1csc2ccccc12)C(=O)O; Lys(iPr) = CC(C)NCCCC[C@H](N)C(=O)O; hTyr = N[C@@H](CCc1ccc(O)cc1)C(=O)O; αAllylPro = C=CC[C@@]1(C(=O)O)CCCN1; tBuAla = CC(C)(C)C[C@H](N)C(=O)O; 3Thi = N[C@@H](Cc1ccsc1)C(=O)O; Cha = N[C@@H](CC1CCCCC1)C(=O)O; PyrS2(4) = not defined here; hSer = N[C@@H](CCO)C(=O)O
T1: Bcat-Halo (UniProt P35222 1-781)
T1 sequence (looked up): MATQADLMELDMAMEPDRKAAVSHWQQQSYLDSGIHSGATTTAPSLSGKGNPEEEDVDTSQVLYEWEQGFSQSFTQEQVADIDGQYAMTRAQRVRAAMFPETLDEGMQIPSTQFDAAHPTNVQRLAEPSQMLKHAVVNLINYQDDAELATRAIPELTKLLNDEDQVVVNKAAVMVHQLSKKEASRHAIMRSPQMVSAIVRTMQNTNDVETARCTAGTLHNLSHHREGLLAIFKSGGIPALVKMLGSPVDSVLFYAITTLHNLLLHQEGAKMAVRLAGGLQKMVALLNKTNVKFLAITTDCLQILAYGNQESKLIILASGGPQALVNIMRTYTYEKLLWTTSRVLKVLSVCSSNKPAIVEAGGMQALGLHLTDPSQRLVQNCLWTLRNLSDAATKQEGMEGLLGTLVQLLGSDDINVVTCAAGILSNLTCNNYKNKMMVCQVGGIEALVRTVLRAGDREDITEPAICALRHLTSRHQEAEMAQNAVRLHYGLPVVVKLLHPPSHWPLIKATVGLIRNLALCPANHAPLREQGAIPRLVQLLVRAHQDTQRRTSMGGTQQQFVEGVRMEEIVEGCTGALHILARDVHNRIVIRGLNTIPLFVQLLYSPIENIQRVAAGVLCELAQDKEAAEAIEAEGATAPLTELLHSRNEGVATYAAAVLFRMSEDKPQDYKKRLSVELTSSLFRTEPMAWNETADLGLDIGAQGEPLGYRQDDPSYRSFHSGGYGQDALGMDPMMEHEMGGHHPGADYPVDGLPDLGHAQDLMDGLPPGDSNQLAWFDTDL

T2: B-cat-Halo (beta-catenin HaloTag NanoBRET construct expressed in HEK293 cells) (UniProt P35222 1-781, HaloTag NanoBRET 618 Ligand bound to the HaloTag)
T2 sequence (looked up): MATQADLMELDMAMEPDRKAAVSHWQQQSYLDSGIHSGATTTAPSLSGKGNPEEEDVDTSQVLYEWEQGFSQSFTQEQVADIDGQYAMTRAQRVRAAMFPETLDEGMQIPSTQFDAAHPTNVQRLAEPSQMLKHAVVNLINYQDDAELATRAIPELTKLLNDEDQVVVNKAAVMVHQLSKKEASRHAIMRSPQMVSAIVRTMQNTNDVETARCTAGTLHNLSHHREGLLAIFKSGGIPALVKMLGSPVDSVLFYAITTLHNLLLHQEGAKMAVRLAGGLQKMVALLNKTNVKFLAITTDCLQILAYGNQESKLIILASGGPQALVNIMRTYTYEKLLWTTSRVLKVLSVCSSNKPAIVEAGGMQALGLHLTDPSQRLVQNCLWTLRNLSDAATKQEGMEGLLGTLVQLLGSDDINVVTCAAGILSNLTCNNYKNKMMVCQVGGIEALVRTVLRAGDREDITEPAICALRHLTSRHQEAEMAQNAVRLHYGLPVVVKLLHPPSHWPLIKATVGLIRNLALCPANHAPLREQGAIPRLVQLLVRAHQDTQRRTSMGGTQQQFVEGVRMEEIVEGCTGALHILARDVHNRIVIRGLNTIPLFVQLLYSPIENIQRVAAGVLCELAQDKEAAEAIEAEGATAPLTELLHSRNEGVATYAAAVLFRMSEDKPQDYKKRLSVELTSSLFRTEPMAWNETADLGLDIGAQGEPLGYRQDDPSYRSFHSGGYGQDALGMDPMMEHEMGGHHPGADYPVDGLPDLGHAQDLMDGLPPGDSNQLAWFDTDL


What follows are binders tested against T1, Bcat-Halo (assay: cell-based or functional assay).

Row | Binder | NanoBRET Abs IC50
1 | Ac-[αAllylPro]D[tBuAla][B5(4)]D[hTyr]AA[Phe(3-COOH)][hSer][PyrS2″][3Thi][Bta]Q-NH2 (staple 1-4, 4-11; also: earlier eluting HPLC isomer composition) [I-2116] | 33.4 µM
2 | Ac-[αAllylPro]D[tBuAla][B5(4)]DHAA[Phe(3-COOH)]L[PyrS2″][3Thi][Bta]Q-NH2 (staple 1-4, 4-11; also: later eluting HPLC isomer composition) [I-2123] | 26.9 µM
3 | Ac-[αAllylPro]D[tBuAla][B5(4)]D[hTyr]AA[Phe(3-COOH)][hSer][PyrS2″][3Thi][Bta]Q-NH2 (staple 1-4, 4-11; also: later eluting HPLC isomer composition) [I-2117] | > 20 µM
4 | Ac-[αAllylPro]N[Cha][B5(4)]DQ[Lys(iPr)]AFN[PyrS2″]F[Bta]H-NH2 (staple 1-4, 4-11) [I-2109] | > 20 µM
5 | Ac-[αAllylPro]D[tBuAla][B5(4)]DWAA[Phe(3-COOH)][hSer][PyrS2″][3Thi][Bta]Q-NH2 (staple 1-4, 4-11) [I-2128] | 27 µM
6 | Ac-[αAllylPro]D[tBuAla][B5(4)]D[hTyr]AA[Phe(3-COOH)]N[PyrS2″][3Thi][Bta]Q-NH2 (staple 1-4, 4-11; also: later eluting HPLC isomer composition) [I-2115] | > 20 µM
7 | Ac-[αAllylPro]D[tBuAla][B5(4)]DYAA[Phe(3-COOH)]L[PyrS2″][3Thi][Bta]Q-NH2 (staple 1-4, 4-11) [I-2126] | 29.5 µM
8 | Ac-[αAllylPro]D[tBuAla][B5(4)]DHAA[Phe(3-COOH)]N[PyrS2″][3Thi][Bta]Q-NH2 (staple 1-4, 4-11; also: earlier eluting HPLC isomer composition) [I-2118] | > 20 µM
9 | Ac-[αAllylPro]D[tBuAla][B5(4)]DWAA[Phe(3-COOH)]N[PyrS2″][3Thi][Bta]Q-NH2 (staple 1-4, 4-11) [I-2127] | 40.8 µM
10 | Ac-[αAllylPro]D[tBuAla][B5(4)]DHAA[Phe(3-COOH)][hSer][PyrS2(4)][3Thi][Bta]Q-NH2 (staple 1-4, 4-11; reading uncertain; also: earlier eluting HPLC isomer composition, printed as Ac-PL3-Asp-Npg-B5-Asp-His-Ala-Ala-3COOHF-Hse-PyrS2-3Thi-BztA-Gln-NH2) [I-2120] | 37.2 µM
11 | Ac-[αAllylPro]D[tBuAla][B5(4)]DWAA[Phe(3-COOH)]L[PyrS2″][3Thi][Bta]Q-NH2 (staple 1-4, 4-11) [I-2129] | 44 µM
12 | Ac-[αAllylPro]D[tBuAla][B5(4)]DYAA[Phe(3-COOH)][hSer][PyrS2″][3Thi][Bta]Q-NH2 (staple 1-4, 4-11; also: earlier eluting HPLC isomer composition) [I-2124] | 38.9 µM
13 | Ac-[αAllylPro]D[tBuAla][B5(4)]DHAA[Phe(3-COOH)]N[PyrS2″][3Thi][Bta]Q-NH2 (staple 1-4, 4-11; also: later eluting HPLC isomer composition) [I-2119] | > 20 µM
14 | Ac-[αAllylPro]D[tBuAla][B5(4)]D[hTyr]AA[Phe(3-COOH)]N[PyrS2″][3Thi][Bta]Q-NH2 (staple 1-4, 4-11; also: earlier eluting HPLC isomer composition) [I-2114] | > 20 µM
15 | Ac-[αAllylPro]D[tBuAla][B5(4)]DHAA[Phe(3-COOH)]L[PyrS2″][3Thi][Bta]Q-NH2 (staple 1-4, 4-11; also: earlier eluting HPLC isomer composition) [I-2122] | 34.4 µM
16 | Ac-[αAllylPro]D[tBuAla][B5(4)]DHAA[Phe(3-COOH)][hSer][PyrS2″][3Thi][Bta]Q-NH2 (staple 1-4, 4-11; also: later eluting HPLC isomer composition) [I-2121] | > 20 µM
17 | Ac-[αAllylPro]N[Cha][B5(4)]DQ[Lys(iPr)]AFN[PyrS2″]F[Bta]K-NH2 (staple 1-4, 4-11) [I-2110] | > 20 µM
18 | Ac-[αAllylPro]D[tBuAla][B5(4)]DYAA[Phe(3-COOH)][hSer][PyrS2″][3Thi][Bta]Q-NH2 (staple 1-4, 4-11; also: later eluting HPLC isomer composition) [I-2125] | 41.2 µM
19 | Ac-[αAllylPro]N[Cha][B5(4)]DQ[Lys(iPr)]AFN[PyrS2″]F[Bta]N-NH2 (staple 1-4, 4-11) [I-2111] | > 20 µM

The binders below were run against T2, B-cat-Halo (beta-catenin HaloTag …) (assay: cell-based or functional assay).

Row | Binder | NanoBRET Abs IC50
20 | Ac-[αAllylPro]DT[B5(5)]DDAAFL[PyrS2″][3Thi][Bta][hSer]-NH2 (staple 1-4, 4-11) [I-1516: Ac-PL3-Asp-Thr-B5-Asp-Asp-Ala-Ala-Phe-Leu-PyrS2-3Thi-BztA-Hse-NH2] | > 20 µM
21 | Ac-[αAllylPro]DT[B5(5)]DDAAFL[PyrS2″][3Thi][Bta]Q-NH2 (staple 1-4, 4-11) [I-1515: Ac-PL3-Asp-Thr-B5-Asp-Asp-Ala-Ala-Phe-Leu-PyrS2-3Thi-BztA-Gln-NH2] | > 20 µM
22 | Ac-[αAllylPro]DF[B5(5)]DDAAFL[PyrS2(4)][3Thi][Bta]Q-NH2 (staple 1-4, 4-11; not fully specified; printed as I-1509: Ac-PL3-Asp-Phe-B5-Asp-Asp-Ala-Ala-Phe-Leu-PyrS2-3Thi-BztA-Gln-NH2; reading uncertain) [I-1509: Ac-PL3-Asp-Phe-B5-Asp-Asp-Ala-Ala-Phe-Leu-PyrS2-3Thi-BztA-Gln-NH2] | 24.5 µM
23 | Ac-[αAllylPro]D[tBuAla][B5(27)]DDA[F2PipAbu]FL[PyrS2][3Thi][Bta]Q-NH2 (staple 1-4, 4-11) [I-1505: Ac-PL3-Asp-Npg-B5-Asp-Asp-Ala-F2PipAbu-Phe-Leu-PyrS2-3Thi-BztA-Gln-NH2] | > 20 µM
24 | Ac-[αAllylPro]D[tBuAla][B5(27)]DDA[MorphAsn]FL[PyrS2][3Thi][Bta]Q-NH2 (staple 1-4, 4-11) [I-1507: Ac-PL3-Asp-Npg-B5-Asp-Asp-Ala-MorphAsn-Phe-Leu-PyrS2-3Thi-BztA-Gln-NH2] | > 20 µM
25 | Ac-[αAllylPro]DS[B5(5)]DDAAFL[PyrS2″][3Thi][Bta]Q-NH2 (staple 1-4, 4-11) [I-1513: Ac-PL3-Asp-Ser-B5-Asp-Asp-Ala-Ala-Phe-Leu-PyrS2-3Thi-BztA-Gln-NH2] | > 20 µM
26 | Ac-[αAllylPro]D[Cha][B5(5)]DDAAFL[PyrS2″][3Thi][Bta]Q-NH2 (staple 1-4, 4-11) [I-1519: Ac-PL3-Asp-Cha-B5-Asp-Asp-Ala-Ala-Phe-Leu-PyrS2-3Thi-BztA-Gln-NH2] | 12.8 µM
27 | Ac-[αAllylPro]DF[B5(27)]DDAAFL[PyrS2][3Thi][Bta][hSer]-NH2 (staple 1-4, 4-11) [I-1510: Ac-PL3-Asp-Phe-B5-Asp-Asp-Ala-Ala-Phe-Leu-PyrS2-3Thi-BztA-Hse-NH2] | 31.8 µM
28 | Ac-[αAllylPro]DY[B5(5)]DDAAFL[PyrS2″][3Thi][Bta][hSer]-NH2 (staple 1-4, 4-11) [I-1512: Ac-PL3-Asp-Tyr-B5-Asp-Asp-Ala-Ala-Phe-Leu-PyrS2-3Thi-BztA-Hse-NH2] | > 20 µM
29 | Ac-[αAllylPro]DN[B5(5)]DDAAFL[PyrS2″][3Thi][Bta][hSer]-NH2 (staple 1-4, 4-11) [I-1518: Ac-PL3-Asp-Asn-B5-Asp-Asp-Ala-Ala-Phe-Leu-PyrS2-3Thi-BztA-Hse-NH2] | 24.2 µM
30 | Ac-[αAllylPro]DY[B5(27)]DDAAFL[PyrS2][3Thi][Bta]Q-NH2 (staple 1-4, 4-11) [I-1511: Ac-PL3-Asp-Tyr-B5-Asp-Asp-Ala-Ala-Phe-Leu-PyrS2-3Thi-BztA-Gln-NH2] | > 20 µM
31 | Ac-[αAllylPro]DN[B5(5)]DDAAFL[PyrS2″][3Thi][Bta]Q-NH2 (staple 1-4, 4-11) [I-1517: Ac-PL3-Asp-Asn-B5-Asp-Asp-Ala-Ala-Phe-Leu-PyrS2-3Thi-BztA-Gln-NH2] | > 20 µM

— patent US20240116985A1 (published 2024)
